Where two headings read alike, the source gives them in different places.
What was measured:
[1] = target: Spike Ferritin nanoparticle SpFN_pCoV1B-06-PL (PrefLead-S2P.1158op1-del-Ferritin) (SARS-CoV-2 Spike ectodomain fused to …); assay: BLI, Fc fusion on AHC probe, SpFN_pCoV1B-06-PL in solution
[2] = target: T1, SARS-CoV-2 Beta (B.1.351) Spike on pseudovirions (SARS-CoV-2); assay: cell-based or functional assay
[3] = target: T2, SARS-CoV-2 Alpha (B.1.1.7) Spike on pseudovirions (SARS-CoV-2); assay: cell-based or functional assay
[4] = target: T1, SARS-CoV-2 Beta (B.1.351) Spike on …; assay: cell-based or functional assay; remark: listed apart in the source
[5] = target: T2, SARS-CoV-2 Alpha (B.1.1.7) Spike on …; assay: cell-based or functional assay; remark: listed apart in the source

Binder	binding result [1]	pseudovirus neutralization IC50 [2] [µg/mL]	pseudovirus neutralization IC50 [3] [µg/mL]	pseudovirus neutralization IC50 [4] [µg/mL]	pseudovirus neutralization IC80 [4] [µg/mL]	pseudovirus neutralization IC50 [5] [µg/mL]	pseudovirus neutralization IC80 [5] [µg/mL]
MoB3-3D8_Fc chimera antibody (Fc fusion) ARVDQTPQTITKETGESLTINCVLRDSNCALASTDWYRKKSGSTNEESISKGGRYVETVNSGSKSFSLRINDLTVEDSGTYRCNAWDSWETRQLKCDYDVYGGGTVVTVN	binds						
ShAb02-Foldon (ShAb02 VNAR-KESlinker-Foldon-3c-His8-Strep) (VNAR) VNAR: ARVDQTPQTITKETGESLTINCVLRDSNCALASTDWYRKKSGSTNEESISKGGRYVETVNSGSKSFSLRINDLTVEDSGTYRCNAWDSWETRQLKCDYDVYGGGTVVTVNK		0.02	0.04	0.397	1.8	0.035	0.104
ShAb01H06K (ShAb01Hole-06Knob) (bispecific antibody, V domains shown) V domain 1: ARVDQTPRSVTKETGESLTINCVLRDSNCALSSTHWYRKKSGSTNEERILQGRRYVETVNSGSKSFSLRINDLRVEDSGTYRCKVYWGNSWQDKFCPGLGSYEYGDGTAVTVNS V domain 2: ARVDQTPRSVTKETGESLTINCVLRDASYALGSTCWYRKKSGSTNEESISKGGRYVETVNSGSKSFSLRINDLTVEDGGTYRCGVGRGLGVGCDYPLCSYSYAACGDGTAVTVNS				1.28	6.17	1.37	2.65
ShAb06H02K (ShAb06Hole-02Knob) (bispecific antibody, V domains shown) V domain 1: ARVDQTPRSVTKETGESLTINCVLRDASYALGSTCWYRKKSGSTNEESISKGGRYVETVNSGSKSFSLRINDLTVEDGGTYRCGVGRGLGVGCDYPLCSYSYAACGDGTAVTVNS V domain 2: ARVDQTPQTITKETGESLTINCVLRDSNCALASTDWYRKKSGSTNEESISKGGRYVETVNSGSKSFSLRINDLTVEDSGTYRCNAWDSWETRQLKCDYDVYGGGTVVTVNS				0.18	0.424	0.109	0.225
ShAb01-Foldon (ShAb01 VNAR-KESlinker-Foldon-3c-His8-Strep) (VNAR) VNAR: ARVDQTPRSVTKETGESLTINCVLRDSNCALSSTHWYRKKSGSTNEERILQGRRYVETVNSGSKSFSLRINDLRVEDSGTYRCKVYWGNSWQDKFCPGLGSYEYGDGTAVTVNK		0.07	0.12	0.075	0.164	0.119	0.328
